These results are taken from US20050020492A1 (MERCK, published 2005).

Like-named read-outs stand apart in the source and are kept apart here. Positions of bridges follow the written chain, without caps; N, C: chain ends. Non-standard residues stand in square brackets, D forms with d. No end group written: not given here. dCit = NC(=O)NCCC[C@@H](N)C(=O)O

Assay [1] addresses T1, human MCH-1R (human, UniProt Q99705 1-353).
T1 construct: Function: 293AEQ17/MCH-1R cells; also called hMCH-1R
Briefly: ratio of the two SPA IC50s. The protocol: (§1) After equilibrating at room temperature for 3 hours, the plates were read in a TopCount (Packard, Meriden, Conn.). IC₅₀ calculations were performed using Prism 3.0 (GraphPad. Software, San Diego, Calif.). The IC₅₀ values were measured in three different experiments.

The target of assay [2] is T1, human MCH-1R. Briefly: cell-based or functional assay.
Assay [3] concerns the target T1, human MCH-1R. Briefly: SPA, displacement of [125I]-[Phe13,Tyr19]-hMCH, CHO/MCH-1R membranes. The protocol: as §1
A general note: Displacement assays read how much labelled ligand stays bound in the presence of the test substance.

Assay [4] concerns the target T2, human MCH-2R (human, UniProt Q969V1 1-340).
T2 construct: Function: 293AEQ17/MCH-2R cells; also called hMCH-2R
The assay can be described thus: SPA, displacement of [125I]-[Phe13,Tyr19]-hMCH, MCH-2R membranes. As to the method: as §1

Assay [5] has as its target T1, human MCH-1R. Briefly: cell-based or functional assay. This is another data set of the same source.
For assay [6], the target named is T2, human MCH-2R. Briefly: cell-based or functional assay.
In assay [7] the target is T2, human MCH-2R. The assay can be described thus: SPA, displacement of [125I]-[Phe13,Tyr19]-hMCH, MCH-2R membranes. The protocol:
as §1
This is another data set of the same source.

Assay [8] has as its target T2, human MCH-2R. The description is as above. The protocol: as §1
The source holds these as a separate data set.

In assay [9] the target is T1, human MCH-1R. The assay can be described thus: cell-based or functional assay. The source holds these as a separate data set.
Assay [10] addresses T2, human MCH-2R. Briefly: cell-based or functional assay. This is another data set of the same source.
Assay [11] concerns the target T1, human MCH-1R. The assay can be described thus: cell-based or functional assay. This is another data set of the same source.
In assay [12] the target is T2, human MCH-2R. The assay can be described thus: cell-based or functional assay. This is another data set of the same source.
The target of assay [13] is T1, human MCH-1R. Briefly: cell-based or functional assay. The source holds these as a separate data set.
The target of assay [14] is T2, human MCH-2R. Briefly: cell-based or functional assay. The source holds these as a separate data set.
Assay [15] deals with T1, human MCH-1R. Briefly: SPA, displacement of [125I]-[Phe13,Tyr19]-hMCH, CHO/MCH-1R membranes.
Assay [16] deals with T1, human MCH-1R. The assay is described as above. The protocol:
as §1
This is another data set of the same source.

The target of assay [17] is T1, human MCH-1R. Described as above. As to the method: as §1
The source holds these as a separate data set.

T1 sequence (Q99705 whole entry): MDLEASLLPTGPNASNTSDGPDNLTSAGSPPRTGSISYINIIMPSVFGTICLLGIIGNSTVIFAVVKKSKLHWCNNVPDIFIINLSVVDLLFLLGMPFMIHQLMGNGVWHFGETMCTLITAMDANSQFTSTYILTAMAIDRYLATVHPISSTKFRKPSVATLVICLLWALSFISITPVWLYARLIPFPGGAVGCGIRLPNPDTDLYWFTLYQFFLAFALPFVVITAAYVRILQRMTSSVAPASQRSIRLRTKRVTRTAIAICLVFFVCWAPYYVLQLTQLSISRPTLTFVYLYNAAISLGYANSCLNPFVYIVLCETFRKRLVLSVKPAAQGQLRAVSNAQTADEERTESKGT
T2 sequence (Q969V1 whole entry): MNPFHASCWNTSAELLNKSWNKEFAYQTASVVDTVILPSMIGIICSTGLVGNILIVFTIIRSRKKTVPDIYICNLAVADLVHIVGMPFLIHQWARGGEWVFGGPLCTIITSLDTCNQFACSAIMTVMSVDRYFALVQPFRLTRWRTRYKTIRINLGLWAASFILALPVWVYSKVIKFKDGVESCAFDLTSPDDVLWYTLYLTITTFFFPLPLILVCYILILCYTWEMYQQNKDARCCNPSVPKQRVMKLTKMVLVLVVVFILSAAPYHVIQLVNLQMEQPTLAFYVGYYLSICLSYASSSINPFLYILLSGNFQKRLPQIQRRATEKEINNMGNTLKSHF

B1: SEQ. ID. NO. 29 (D-Arg^6, Asn^10 analog of Ac-hMCH(6-16)-NH2) (peptide)
peptide: XCMLNRVYRPC
HELM: PEPTIDE1{[ac].[dR].C.M.L.N.R.V.Y.R.P.C.[am]}$PEPTIDE1,PEPTIDE1,3:R3-12:R3$$$V2.0
SMILES: CSCC[C@@H]1NC(=O)[C@@H](NC(=O)[C@@H](CCCNC(=N)N)NC(C)=O)CSSC[C@@H](C(N)=O)NC(=O)[C@@H]2CCCN2C(=O)[C@H](CCCNC(=N)N)NC(=O)[C@H](Cc2ccc(O)cc2)NC(=O)[C@H](C(C)C)NC(=O)[C@H](CCCNC(=N)N)NC(=O)[C@H](CC(N)=O)NC(=O)[C@H](CC(C)C)NC1=O
Usually IC50 stands for the concentration that inhibits the measured activity by half. A high value points to a need for much substance. For B1, the “Selectivity 2/1 (MCH-2R/MCH-1R IC50 ratio)” value in assay [1] is 6600 ratio. Also, the “fold more selective as agonist for hMCH-1R than hMCH-2R” value in assay [2] was ~150 fold. The IC50 in [3] is 0.5 nM. In assay [4], this molecule came in with an IC50 of 3300 nM. Besides, in assay [5], the “Activation %, aequorin bioluminescence” value is 120%; the “EC50, aequorin bioluminescence” value is 55 nM; the “Selectivity 2/1 (MCH-2R/MCH-1R EC50 activity ratio)” value was 150 ratio. For the same molecule, in [6], the “Activation %, aequorin bioluminescence” value stood at 20% and the “EC50, aequorin bioluminescence” value is 8400 nM.

B2: SEQ. ID. NO. 30 (D-Arg^6, Gln^10 analog of Ac-hMCH(6-16)-NH2) (peptide)
peptide: XCMLQRVYRPC
HELM: PEPTIDE1{[ac].[dR].C.M.L.Q.R.V.Y.R.P.C.[am]}$PEPTIDE1,PEPTIDE1,3:R3-12:R3$$$V2.0
SMILES: CSCC[C@@H]1NC(=O)[C@@H](NC(=O)[C@@H](CCCNC(=N)N)NC(C)=O)CSSC[C@@H](C(N)=O)NC(=O)[C@@H]2CCCN2C(=O)[C@H](CCCNC(=N)N)NC(=O)[C@H](Cc2ccc(O)cc2)NC(=O)[C@H](C(C)C)NC(=O)[C@H](CCCNC(=N)N)NC(=O)[C@H](CCC(N)=O)NC(=O)[C@H](CC(C)C)NC1=O
Take B2: the “Selectivity 2/1 (MCH-2R/MCH-1R IC50 ratio)” value in [1] came to 230 ratio. Further, in assay [2], the “fold more selective as agonist for hMCH-1R than hMCH-2R” value was ~150 fold. Besides, the IC50 turned out to be 6.1 nM in assay [3] and 1400 nM in assay [4]. For the same molecule, the figures for the “Activation %, aequorin bioluminescence” value in assay [5] and in assay [6] were 74% and 11%, respectively. Also, the “EC50, aequorin bioluminescence” value in [5] is 2300 nM; in assay [6], > 10000 nM.

B3: SEQ. ID. NO. 33 (D-Arg^6, Asn^10, Ala^14 analog of Ac-hMCH(6-16)-NH2) (peptide)
peptide: XCMLNRVYAPC
HELM: PEPTIDE1{[ac].[dR].C.M.L.N.R.V.Y.A.P.C.[am]}$PEPTIDE1,PEPTIDE1,3:R3-12:R3$$$V2.0
SMILES: CSCC[C@@H]1NC(=O)[C@@H](NC(=O)[C@@H](CCCNC(=N)N)NC(C)=O)CSSC[C@@H](C(N)=O)NC(=O)[C@@H]2CCCN2C(=O)[C@H](C)NC(=O)[C@H](Cc2ccc(O)cc2)NC(=O)[C@H](C(C)C)NC(=O)[C@H](CCCNC(=N)N)NC(=O)[C@H](CC(N)=O)NC(=O)[C@H](CC(C)C)NC1=O
Regarding B3, in assay [2], the “fold more selective with respect to hMCH-2R” value was ~50 fold and the “fold weaker agonist than the parent compound” value came to 5 fold. In [3], the IC50 was 3.2 nM. For the same molecule, in assay [5], the “Activation %, aequorin bioluminescence” value is 109% and the “EC50, aequorin bioluminescence” value amounted to 260 nM. In assay [6], the “Activation %, aequorin bioluminescence” value was 17% and the “EC50, aequorin bioluminescence” value is > 10000 nM.

B4: human MCH (peptide)
chain: DFDMLRCMLGRVYRPCWQV
modifications: disulfide 7-16 (inferred)
As for B4, the IC50 in assay [7], in assay [4] and in assay [8] was 0.5 nM in each case. The “Activation %, aequorin bioluminescence” value in assay [9], in [10], in [5], in assay [6], in assay [11] and in assay [12] was 100% in each case. Besides, the “EC50, aequorin bioluminescence” value in [10], in assay [6] and in assay [12] was 30.7 nM each time.

B5: SEQ. ID. NO. 34 (D-Cit^6, Asn^10 analog of Ac-hMCH(6-16)-NH2) (peptide)
peptide: Ac-[dCit]CMLNRVYRPC-NH2
modifications: disulfide 2-11 (inferred)
For the molecule B5, in assay [13], the Activation %, aequorin bioluminescence stood at 110% and the EC50, aequorin bioluminescence was 1460 nM. In assay [14], the Activation %, aequorin bioluminescence was found to be 8% and the EC50, aequorin bioluminescence was > 10000 nM. The IC50 in assay [15] is 8.3 nM.

B6: SEQ. ID. NO. 31 (D-Arg^6, Nle^8, Asn^10 analog of Ac-hMCH(6-16)-NH2) (peptide)
peptide: XCXLNRVYRPC
HELM: PEPTIDE1{[ac].[dR].C.[Nle].L.N.R.V.Y.R.P.C.[am]}$PEPTIDE1,PEPTIDE1,3:R3-12:R3$$$V2.0
SMILES: CCCC[C@@H]1NC(=O)[C@@H](NC(=O)[C@@H](CCCNC(=N)N)NC(C)=O)CSSC[C@@H](C(N)=O)NC(=O)[C@@H]2CCCN2C(=O)[C@H](CCCNC(=N)N)NC(=O)[C@H](Cc2ccc(O)cc2)NC(=O)[C@H](C(C)C)NC(=O)[C@H](CCCNC(=N)N)NC(=O)[C@H](CC(N)=O)NC(=O)[C@H](CC(C)C)NC1=O
Turning to B6, the “Selectivity 2/1 (MCH-2R/MCH-1R IC50 ratio)” value in [1] is 5700 ratio. Further, the IC50 in [3] was 0.28 nM; in [4], 1600 nM. In addition, the “Activation %, aequorin bioluminescence” value in assay [5] amounted to 130%; in assay [6], 23%. In addition, the entries for the “EC50, aequorin bioluminescence” value in assay [5] and in assay [6] were 240 nM and 5500 nM, respectively. In addition, the “Selectivity 2/1 (MCH-2R/MCH-1R EC50 activity ratio)” value in assay [5] stood at 23 ratio.

B7: SEQ. ID. NO. 14 (Ac-D-Cit^6 analog of Ac-hMCH(6-16)-NH2) (peptide)
peptide: XCMLGRVYRPC
modifications: N-terminal acetyl; D-Cit (D-citrulline) at position 6; C-terminal amide; disulfide cycle
For the molecule B7, the IC50 in [16] came out at 3 nM; in assay [8], 134 nM. The “Activation %, aequorin bioluminescence” value came out at 91% in assay [11] and 68% in assay [12]. In addition, the “EC50, aequorin bioluminescence” value in assay [11] came to 920 nM; in assay [12], 310 nM.

B8: SEQ. ID. NO. 13 (Ac-D-Lys^6 analog of Ac-hMCH(6-16)-NH2) (peptide)
peptide: XCMLGRVYRPC
HELM: PEPTIDE1{[ac].[dK].C.M.L.G.R.V.Y.R.P.C.[am]}$PEPTIDE1,PEPTIDE1,3:R3-12:R3$$$V2.0
SMILES: CSCC[C@@H]1NC(=O)[C@@H](NC(=O)[C@@H](CCCCN)NC(C)=O)CSSC[C@@H](C(N)=O)NC(=O)[C@@H]2CCCN2C(=O)[C@H](CCCNC(=N)N)NC(=O)[C@H](Cc2ccc(O)cc2)NC(=O)[C@H](C(C)C)NC(=O)[C@H](CCCNC(=N)N)NC(=O)CNC(=O)[C@H](CC(C)C)NC1=O
For the molecule B8, the results for the IC50 in [16] and in assay [8] were 0.3 nM and 1030 nM, respectively. The “Activation %, aequorin bioluminescence” value came out at 130% in assay [11] and 55% in [12]. Also, the “EC50, aequorin bioluminescence” value in assay [11] worked out at 94 nM; in assay [12], 2100 nM.

B9: Ac-hMCH(6-16)-NH2 (peptide)
peptide: Ac-RCMLGRVYRPC-NH2
modifications: disulfide 2-11 (inferred)
notes: also called ID; NO; parent compound
On to B9, for which the IC50 in assay [7] stood at 2 nM; in assay [16], 1.4 nM; in assay [3], 0.5 nM; in assay [4], 2 nM; in assay [8], 2 nM; in [17] it was 0.5 nM. In addition, the “Activation %, aequorin bioluminescence” value in [9], in assay [5] and in [11] was 99% each time. The “EC50, aequorin bioluminescence” value in assay [9], in [5] and in assay [11] was 20 nM each time.

B10: SEQ. ID. NO. 9 (Ac-D-Phe^6 analog of Ac-hMCH(6-16)-NH2) (peptide)
peptide: XCMLGRVYRPC
HELM: PEPTIDE1{[ac].[dF].C.M.L.G.R.V.Y.R.P.C.[am]}$PEPTIDE1,PEPTIDE1,3:R3-12:R3$$$V2.0
SMILES: CSCC[C@@H]1NC(=O)[C@@H](NC(=O)[C@@H](Cc2ccccc2)NC(C)=O)CSSC[C@@H](C(N)=O)NC(=O)[C@@H]2CCCN2C(=O)[C@H](CCCNC(=N)N)NC(=O)[C@H](Cc2ccc(O)cc2)NC(=O)[C@H](C(C)C)NC(=O)[C@H](CCCNC(=N)N)NC(=O)CNC(=O)[C@H](CC(C)C)NC1=O
Regarding B10, the IC50 in assay [16] worked out at 0.9 nM; in assay [8], 1250 nM. For the same molecule, the “Activation %, aequorin bioluminescence” value in assay [11] stood at 117%. Besides, the “EC50, aequorin bioluminescence” value in assay [11] amounted to 66 nM; in [12], 510 nM.
